Assay results reported in patent US20220406376A1 (MacroGenics, published 2022).

Key:
[1] = target: T1, HER2/neu on the surface of target cells (N87, JIMT-1, MCF-7, MDA-MB231) (UniProt P04626 23-1255, limits assumed); assay: flow cytometry on N87 cells, anti-hFc APC MFI
T1 construct: whole, on cells

[2] = target: T2, CD137 on the surface of cells (activated human T cells; engineered CHO cells) (human, UniProt Q07011 24-255); assay: flow cytometry on activated pan T cells (donor D46433, CD8 PE), anti-hFc APC MFI
T2 construct: whole, on cells; also called human CD137; cell surface expressed CD137
T2 sequence (Q07011 24-255, change not shown): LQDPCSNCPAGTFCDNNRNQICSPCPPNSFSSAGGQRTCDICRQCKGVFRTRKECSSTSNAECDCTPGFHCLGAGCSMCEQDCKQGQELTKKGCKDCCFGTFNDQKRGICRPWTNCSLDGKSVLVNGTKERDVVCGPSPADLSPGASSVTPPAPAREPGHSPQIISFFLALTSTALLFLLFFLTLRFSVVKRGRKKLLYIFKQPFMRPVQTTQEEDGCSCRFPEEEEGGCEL

[3] = target: T1, HER2/neu on the surface of target cells …; assay: flow cytometry on JIMT-1 cells, anti-hFc APC MFI
[4] = target: T1, HER2/neu on the surface of target cells …; assay: flow cytometry on MCF-7 cells, anti-hFc APC MFI
[5] = target: T1, HER2/neu on the surface of target cells …; assay: flow cytometry on N87 gastric cancer cells, anti-hFc APC MFI
[6] = target: T2, CD137 on the surface of cells …; assay: flow cytometry on activated pan T cells gated CD8, anti-hFc APC MFI

Binder | EC50 (read off the curve) [1] | EC50 (read off the curve) [2] | EC50 (read off the curve) [3] | EC50 (read off the curve) [4] | binding result [5] | EC50 (read off the curve) [6]
TRIDENT-A3 (bispecific antibody, human IgG1, kappa, L234A L235A) chain 1: DIQMTQSPSSLSASVGDRVTITCRPSQDISNYLNWYQQKPDKTVKLLIYYTSRLRSGVPSRFSGSGSGTDFTFTISSLQPEDIATYFCQQGDTLPYTFGQGTKLEIKGGGSGGGGQVQLVQSGAEVKKPGASVKVSCKASGYTFTSYWINWVKQAPGQGLEWIGNIYPSDSYTNYNQKFKDKATITADKSTSTAYMELSSLRSEDTAVYYCTRDYGSAYSYSLWGQGTTVTVSSASTKGEVAACEKEVAALEKEVAALEKEVAALEKGGGDKTHTCPPCPAPEAAGGPSVFLFPPKPKDTLMISRTPEVTCVVVDVSHEDPEVKFNWYVDGVEVHNAKTKPREEQYNSTYRVVSVLTVLHQDWLNGKEYKCKVSNKALPAPIEKTISKAKGQPREPQVYTLPPSREEMTKNQVSLWCLVKGFYPSDIAVEWESNGQPENNYKTTPPVLDSDGSFFLYSKLTVDKSRWQQGNVFSCSVMHEALHNHYTQKSLSLSPGK chain 2: DIQMTQSPSSLSASVGDRVTITCRPSQDISNYLNWYQQKPDKTVKLLIYYTSRLRSGVPSRFSGSGSGTDFTFTISSLQPEDIATYFCQQGDTLPYTFGQGTKLEIKGGGSGGGGQVQLVQSGAEVKKPGASVKVSCKASGYTFTSYWINWVKQAPGQGLEWIGNIYPSDSYTNYNQKFKDKATITADKSTSTAYMELSSLRSEDTAVYYCTRDYGSAYSYSLWGQGTTVTVSSASTKGKVAACKEKVAALKEKVAALKEKVAALKE heavy: QVQLVQSGAEVKKPGASVKVSCKASGYTFTNYGMNWVRQAPGQGLEWMGWINTNIGEPTYTEEFKGRVTMTRDTSISTAYMELSRLRSDDTAVYYCARDDGYGNRVSYWGQGTLVTVSSASTKGPSVFPLAPSSKSTSGGTAALGCLVKDYFPEPVTVSWNSGALTSGVHTFPAVLQSSGLYSLSSVVTVPSSSLGTQTYICNVNHKPSNTKVDKRVEPKSCDKTHTCPPCPAPEAAGGPSVFLFPPKPKDTLMISRTPEVTCVVVDVSHEDPEVKFNWYVDGVEVHNAKTKPREEQYNSTYRVVSVLTVLHQDWLNGKEYKCKVSNKALPAPIEKTISKAKGQPREPQVYTLPPSREEMTKNQVSLSCAVKGFYPSDIAVEWESNGQPENNYKTTPPVLDSDGSFFLVSKLTVDKSRWQQGNVFSCSVMHEALHNRYTQKSLSLSPGK light: DIQMTQSPSSLSASVGDRVTITCKASQDISNYLSWFQQKPGKAPKTLIYRANRLQSGVPSRFSGSGSGTDFTLTISSLQPEDFATYYCLQHDEFPWTFGQGTKLEIKRTVAAPSVFIFPPSDEQLKSGTASVVCLLNNFYPREAKVQWKVDNALQSGNSQESVTEQDSKDSTYSLSSTLTLSKADYEKHKVYACEVTHQGLSSPVTKSFNRGEC | ~1 nM | ~0.05 nM | ~0.7 nM | ~0.2 nM |  | 
TRIDENT-A (bispecific antibody, human IgG1, kappa, L234A L235A) chain 1: DIQMTQSPSSLSASVGDRVTITCRPSQDISNYLNWYQQKPDKTVKLLIYYTSRLRSGVPSRFSGSGSGTDFTFTISSLQPEDIATYFCQQGDTLPYTFGQGTKLEIKGGGSGGGGQVQLVQSGAEVKKPGASVKVSCKASGYTFTSYWINWVKQAPGQGLEWIGNIYPSDSYTNYNQKFKDKATITADKSTSTAYMELSSLRSEDTAVYYCTRDYGSSYSFDYWGQGTTVTVSSASTKGEVAACEKEVAALEKEVAALEKEVAALEKGGGDKTHTCPPCPAPEAAGGPSVFLFPPKPKDTLMISRTPEVTCVVVDVSHEDPEVKFNWYVDGVEVHNAKTKPREEQYNSTYRVVSVLTVLHQDWLNGKEYKCKVSNKALPAPIEKTISKAKGQPREPQVYTLPPSREEMTKNQVSLWCLVKGFYPSDIAVEWESNGQPENNYKTTPPVLDSDGSFFLYSKLTVDKSRWQQGNVFSCSVMHEALHNHYTQKSLSLSPGK chain 2: DIQMTQSPSSLSASVGDRVTITCRPSQDISNYLNWYQQKPDKTVKLLIYYTSRLRSGVPSRFSGSGSGTDFTFTISSLQPEDIATYFCQQGDTLPYTFGQGTKLEIKGGGSGGGGQVQLVQSGAEVKKPGASVKVSCKASGYTFTSYWINWVKQAPGQGLEWIGNIYPSDSYTNYNQKFKDKATITADKSTSTAYMELSSLRSEDTAVYYCTRDYGSSYSFDYWGQGTTVTVSSASTKGKVAACKEKVAALKEKVAALKEKVAALKE heavy: QVQLVQSGAEVKKPGASVKVSCKASGYTFTNYGMNWVRQAPGQGLEWMGWINTNIGEPTYTEEFKGRVTMTRDTSISTAYMELSRLRSDDTAVYYCARDDGYGNRVSYWGQGTLVTVSSASTKGPSVFPLAPSSKSTSGGTAALGCLVKDYFPEPVTVSWNSGALTSGVHTFPAVLQSSGLYSLSSVVTVPSSSLGTQTYICNVNHKPSNTKVDKRVEPKSCDKTHTCPPCPAPEAAGGPSVFLFPPKPKDTLMISRTPEVTCVVVDVSHEDPEVKFNWYVDGVEVHNAKTKPREEQYNSTYRVVSVLTVLHQDWLNGKEYKCKVSNKALPAPIEKTISKAKGQPREPQVYTLPPSREEMTKNQVSLSCAVKGFYPSDIAVEWESNGQPENNYKTTPPVLDSDGSFFLVSKLTVDKSRWQQGNVFSCSVMHEALHNRYTQKSLSLSPGK light: DIQMTQSPSSLSASVGDRVTITCKASQDISNYLSWFQQKPGKAPKTLIYRANRLQSGVPSRFSGSGSGTDFTLTISSLQPEDFATYYCLQHDEFPWTFGQGTKLEIKRTVAAPSVFIFPPSDEQLKSGTASVVCLLNNFYPREAKVQWKVDNALQSGNSQESVTEQDSKDSTYSLSSTLTLSKADYEKHKVYACEVTHQGLSSPVTKSFNRGEC | ~1 nM | ~0.06 nM | ~0.9 nM | ~0.2 nM |  | 
DART-E (bispecific antibody, human IgG1, kappa, L234A L235A) heavy: QVQLQQPGAELVRPGASVKLSCKASGYTFTSYWINWVKQRPGQGLEWIGNIYPSDSYTNYNQKFKDKATLTVDKSSSTAYMQLSSPTSEDSAVYYCTRDYGSSYSFDYWGQGTTLTVSSASTKGPSVFPLAPSSKSTSGGTAALGCLVKDYFPEPVTVSWNSGALTSGVHTFPAVLQSSGLYSLSSVVTVPSSSLGTQTYICNVNHKPSNTKVDKRVEPKSCDKTHTCPPCPAPEAAGGPSVFLFPPKPKDTLMISRTPEVTCVVVDVSHEDPEVKFNWYVDGVEVHNAKTKPREEQYNSTYRVVSVLTVLHQDWLNGKEYKCKVSNKALPAPIEKTISKAKGQPREPQVYTLPPSREEMTKNQVSLSCAVKGFYPSDIAVEWESNGQPENNYKTTPPVLDSDGSFFLVSKLTVDKSRWQQGNVFSCSVMHEALHNRYTQKSLSLSPGK light: DIQMTQTTSSLSASLGDRVTISCRPSQDISNYLNWYQQKPDGTVKLLIYYTSRLRSGVPSRFSGSGSGTDYSLTISNLEQEDIATYFCQQGDTLPYTFGGGTKLEIKRTVAAPSVFIFPPSDEQLKSGTASVVCLLNNFYPREAKVQWKVDNALQSGNSQESVTEQDSKDSTYSLSSTLTLSKADYEKHKVYACEVTHQGLSSPVTKSFNRGEC chain 1: QVQLQQPGAELVRPGASVKLSCKASGYTFTSYWINWVKQRPGQGLEWIGNIYPSDSYTNYNQKFKDKATLTVDKSSSTAYMQLSSPTSEDSAVYYCTRDYGSSYSFDYWGQGTTLTVSSASTKGPSVFPLAPSSKSTSGGTAALGCLVKDYFPEPVTVSWNSGALTSGVHTFPAVLQSSGLYSLSSVVTVPSSSLGTQTYICNVNHKPSNTKVDKRVEPKSCDKTHTCPPCPAPEAAGGPSVFLFPPKPKDTLMISRTPEVTCVVVDVSHEDPEVKFNWYVDGVEVHNAKTKPREEQYNSTYRVVSVLTVLHQDWLNGKEYKCKVSNKALPAPIEKTISKAKGQPREPQVYTLPPSREEMTKNQVSLWCLVKGFYPSDIAVEWESNGQPENNYKTTPPVLDSDGSFFLYSKLTVDKSRWQQGNVFSCSVMHEALHNHYTQKSLSLSPGGGGSGGGSGGGDIQMTQSPSSLSASVGDRVTITCKASQDISNYLSWFQQKPGKAPKTLIYRANRLQSGVPSRFSGSGSGTDFTLTISSLQPEDFATYYCLQHDEFPWTFGQGTKLEIKGGGSGGGGQVQLVQSGAEVKKPGASVKVSCKASGYTFTNYGMNWVRQAPGQGLEWMGWINTNIGEPTYTEEFKGRVTMTRDTSISTAYMELSRLRSDDTAVYYCARDDGYGNRVSYWGQGTLVTVSSGGCGGGEVAALEKEVAALEKEVAALEKEVAALEK chain 2: DIQMTQSPSSLSASVGDRVTITCKASQDISNYLSWFQQKPGKAPKTLIYRANRLQSGVPSRFSGSGSGTDFTLTISSLQPEDFATYYCLQHDEFPWTFGQGTKLEIKGGGSGGGGQVQLVQSGAEVKKPGASVKVSCKASGYTFTNYGMNWVRQAPGQGLEWMGWINTNIGEPTYTEEFKGRVTMTRDTSISTAYMELSRLRSDDTAVYYCARDDGYGNRVSYWGQGTLVTVSSGGCGGGKVAALKEKVAALKEKVAALKEKVAALKE |  |  |  |  | binds | ~0.1 nM
